The nanobody polyreactivity screen of Harvey et al. (2022)

Assay: yeast display, Sf9 membrane polyspecificity reagent, FACS + sequencing; frameworks hold sequencing errors
Outline: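 Sorting gates, low and high (top ~1%), were placed on anti-HA fluorescence to track expression and on streptavidin fluorescence to track reagent binding. A clone's polyreactivity label is taken from the gate it came out of. The reagent was 10% biotinylated, detergent-solubilized Sf9 membrane, applied for 1 hour at 4 °C to galactose-induced yeast display cells.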

Row | Sequence | polyreactivity (PSR sort gate)
1 | QVQLVESGAGLVHAGGSLRLSCAAYGRTFLAYAKGWYRQAHGKERELVAAISKSGGRTYYADSVKGRFTISRDYAKHTVYLQMNSLKPEDTAVYYCAADKQAYVTDDYWGQGTQVTVSS | high polyreactivity
2 | QVQLVESGGGLVQAGGSLRLSCAASASIFAYKAIGWYRQAPGKESELVASITNGGSTYYADSVKGRFTISRDNAKNTVYLQMNSLKQEDTAVYYCNTDFDVYSVGYDGYWGQGTQVTVSS | low polyreactivity
3 | QVQLVESGGGLVQAGGSLRLSCAASGSTFRANAMGWYRQAPGKERELVAAITSGGSTNYADSVKGRFTISRDNAKNTVYLQMNCLKPEDTAVYYCADESYQEHSFYVYYGYDYWGQGTQVTVSS | low polyreactivity
4 | QVQLVESGGGLVQAGGSLRLSCAASGSIFRKYTMGWYRQAPGKERELVAAISGTAGRTYYADSVKGRFTISRDNAKNTVYLQMNSLKPEDTAVYYCAARRFGGYGYNYWGQGTQVTVSS | high polyreactivity
5 | QVQLVDSGGGLVQAGGSHRLSCAASGRIFGDNAMGWYRQAPGKERELVAAIDWNDGNTYYADSVKGRFTISRDNANNTVYLQMNSLKPEDTAVYYCNTAGQDAEYDYWGQGTQVTVSS | low polyreactivity
6 | QDQLVESGGGLVQAGGSLRLSCAASGRTFYFYAMGWYRQAPGKERELVAAISWTGGITYYADSVKGRFTISRDNAKNTVYLQMNSLKPEDTAVYYCAKKYYKVHKFDYWGQGTQVTVSS | low polyreactivity
7 | QVQLVESGGGLVQAGGSLRLSCAASGFTFAFYAMGWYRQAPGKERELVAAISKNDGTTYYADSVKGRFTISRHTAKNTVYLLMNSLKPEDTAVYYCAAESCYPVYTYVSSGDYWGQGTQVTVSS | low polyreactivity
8 | QDQLVESAGGLVQAGGSLRLICAASASIFYWNAMGWYRQAPGKERELVAAITSGGSTYYADSVKGRFTISRDNAKNTVYLQMNSMKPEDTAVYYCAARPRGTYSRLGYWGQGTQVTVSS | high polyreactivity
9 | QVQLGDSGGGLVQAGGRLRLSCAASGRTIRPYTMGWYRQAPGNERALVAAITSGGGSTYYADSVKGRFTISRDNAKNTVTLQMHSLKPDDTAVYYCAAPRRERWIDVNQHYSWGQGTQVTVSS | low polyreactivity
10 | QVQLQESGGGLVQSGGSLRLSCAASGFIFARNYMGWYRQAPGKERELVAGIGVGASTNYADSVKGRFTISRDNAKNTVYLQMNSLKPEDTAVYYCNARTGTTWQGYEYDYWGQGTQVTVSS | low polyreactivity
11 | QVQLVESGGGLVQAGGSLRLSCAASGSTFIQYAMGWYRQAPGKERELVATIRWIGGSTYYADSVKGRFTISRDNAKNTVYLQMNSLKPEDTAVYYCAAGYEYVENGVDWYEYDYWGQGTQVTVSS | low polyreactivity
12 | QVQLVESGGGLVQAGGSLRLSCAASGSTFGYYTMGWYRQAPGKERELVAAISWSGGRTYYADSVKGRFTISRDNAKNTVYLQMNSLKPEDTAVYYCAAPRYGGWRSYQKYDYWGQGTQVTVSS | high polyreactivity
13 | QVQLVESGGGLVQAGGSLRLSCAASGRTFQRYAMGWYRQAPGKERELVAAITSGSRTNYADSVKGRFTSSRDNAKNTVYLQMNSLKPEDTAVYYCAADYTWRNNYCGQGTQVTVSS | high polyreactivity
14 | QVQLVESGGGIVQAGGRLRLSCAASGSIFLQYTMGWYRQAPGKERELVAAITESDGSTYYADSVKGRFTISRDNAKNTVYLQMNSLKPEDTAVYYCAADVVYFKYWDKYDYWGQGTQVTLSS | low polyreactivity
15 | QVQLVESGGGLVQAGGSLRLSCAASGSTFWYNAMGWYRQAPGTEREFVAAISSRGGNTFYADSVKGRFTISRDNAKNTVYLQMNSLKPEDTAVYYCDARFNRPYDYWGQGTQVTVSS | low polyreactivity
16 | QVQLVESGGGLVQAGGSLRLSCAASGSIFRWNAMGWYRQAPGKERELVAAIDSGGSTYADSVKGRFTISRDNAKNTVYLQMNSLKPEDTAVYYCAAEIPDEWPYDYWGQGTQVTVSS | low polyreactivity
17 | QVQLVESGGGLVQAGGSLRLSCAASGITFYHYAMGWYRQAPGKERELVAAISRSGGSTSYADSVMGRFTISRDNAKNTVYLQMNSLKPEDTAVYYCAARLVRESEPLGYWGQGTQVTVSS | high polyreactivity
18 | QVQLVESGGGLVQAGGSLRLSCAASGRTFRLYAMGWYRQAPGKERELVAAISYSDGRTYYADSVKGRFTISRDNAKNTVYLQMNSLKPEDTAVYYCAAETLYVSPYFYVVQYDYWGQGTQVTVSS | high polyreactivity
19 | QVQLVESGGGLVQAGGILRLSSAASGFTFSRNAMGWYRQAPGKERELVASISGRGGRTYYADSVKGRFTISRDNAKNTVSLQMNSLKPEDTAVYDCAARWRQRKSVRYGQQGYDYWGQGTQVSVSS | high polyreactivity
20 | KSGGGLVQAGGSLRLSCAASGRIYVEYAMAWYKQAPGKERELVASISWSGDSTYYAESVKGRFTISRDNAKNTVYSQKKSLKPEATAVYYCNADGQVGYAVSYDYWGQGTQVTVSS | low polyreactivity
21 | QVQLVESGGGLVQAGGSLRLSCAASGRIFRFYAMGWYRQAPGKERELVAVISTGGRTYYADSVKGRFTISRDNAKNTVYLQMNSLKPEDTAVYYCAAEYTTIGRYDGWHYNYWGQGTQVTVSS | high polyreactivity
22 | QVQLVESGGGLVQAGGSLRLSCAASGSTFYHNVMGWYLQAPGKERELVASIDTGDSTNYADSVKGRFTISRDNAKNTVYLQMNSLKPEDTAVYYCNADSYPALNKRGYDYWGQGTQVTVSS | low polyreactivity

Row | Sequence | polyreactivity (PSR sort gate)
23 | QVQLVESGGGLVQAGGSLRLSCAASGRIFGVYAMGWSRQAPGKERELVATITSGGSTSYADSVKGRFTISRDNAINTVFLQMNSLKPEDTAVYYCNAPYSFFWQQMNYWGQGTQVTVSS | low polyreactivity
24 | QVQLVESGGGLVQAGGSLRLSCAASGITFVSNVMGWYRQAPGKEREFVAAITGRGDSTYADSVKGRFTISRDNAKNTVYLQMNSLKPEDTAFYYCNRESDIYSFVAMNYWGQGTQVTVSS | low polyreactivity
25 | QVQLVESGGGLDQAGGSLRLSCAASGSIFVNYARGWYRQAPGKERELVAAITRSGGRTYYADSVKGRFTISRDNAKNTVYLQMNSLKPEVTAVYYCAARRGYAGNRDGYWGQGTQVNVSS | high polyreactivity
26 | QHQLVESGGGLFQAGGSLRLSCAPSGSIIVWNAMGWYRQAPGKERELVASMTSGASTYYADSGKGRVTISRDNAKNTVYLQMNSLKPEDTAVYYCAAYYGYTDGWYLYSGYNYWGQGTQVTVSS | low polyreactivity
27 | QFQLLESGGGLVQAGGSLRRSCAASGFTFDYYAMGWSRQAPGKERELVAVNNWSGGDTYYADSVKGRFTISRDNAKNTVYLQMNSLKPEDTAVYYCARVERMRYVGKYYPIRDYWGQGNQVTVSS | high polyreactivity
28 | QVQLVESGGGLVQAGGSLRLSCAASGIIFEFYAMGWYRQAPGKEREFVAAISKNGGRTYYADSVKGRFTISRDNAKTSVYLQLNSLKPEDTAVYYCDARYRPQANKYYYWGQGTQVTVSS | high polyreactivity
29 | QVQLVESGGGLVQAGGSLRLSCAASGSISYYNAMGWYRQAPGKERELVATITDSGGSTYYADSVKGRFTISRDNAKNTVYLQMNSLKPEDTAVYYCAVDYTEWYSIYDYWGQGTEVTVSS | low polyreactivity
30 | QVQLVESCGGIVQAGGSLRLICAASGRIFDSNAMGWYRQSPGKETELVAAITTSGGSTFYADSVKVRFTISRDNAMNTVYLQMISLKPEDTAVYYCAAGYSFYYHAIFPFDYWGQGNQVTVSS | high polyreactivity
31 | QVQLLESGGGLVQAGGSLRLSCAASGSIFLTYAMGWYRQAPGKERELVAAISSSGGSTYYADSVKGRFTISRDNSKNTVYLQMNSLKPEVTAVYYCNAAYHFRRTLGRDHWGQGTEVTVSS | low polyreactivity
32 | QVQLVESGGGLVQAGGSLRLSCAASGRIFFFYAMGWYRQAPGKERELVATITWTDGSTDYADSVKGRFTISRDNAKNTVYLQMNSLKPEDTAVYYCAKDEYVSRYDYWGQGTQVTVSS | low polyreactivity
33 | QVQLVESGGGLVQAGGSLRLTCAASGNIFYINAMGSYRQAPGKDRELVAAIRGGGSTYYADSVKGRFTISRDNAKKTVYLQMTSLKAEDTAVYYCAARGRRLNPQYRAFGMDYWGQGTQVTVSS | high polyreactivity
34 | QVQLVESGGGLVQAGGSLRLSCAASGSIFRSYAMGWYRQAPGKERELVAAISSSSGSTYYADSVKGRFTISRDNAKNTVYLQMNSLKPEDTAVYYCAARSRIGNNGYEYWGQGTQVTVSS | low polyreactivity
35 | QVQLVESGGGLVQAGGSLRLSCAASGRIFAWYAMGWYRQAPGKDRELVAAISDSGGSTYYADSVKGRFTISRDNAKNTVYLQMNSLKPEVTAVYYWAADQVVYYAYWSDHYDDWGQGTQVTVSS | low polyreactivity
36 | QVQLVESGGGLVQAGGSLRLSCAASGFIFSANDMGGYRQAPGKERELVADIDSSGRTNYADSVKGRFTISRDNAKNTVYLQMNSLNPEDTAVYYCATPPDDKGGGYLGYDYWGQGTEVTVSS | low polyreactivity
37 | QVPLVESGGGLVQAGGSLRLSCAASGRTFWNYAMGWYRPAPGKERELVAVSRFSDGSTYYADSVKGRFTISRDNAKNTVYLQMNSLKPEDTAVDDGAAKGPRRWGSGFDYWGQGTQVTVSS | low polyreactivity
38 | QVQLVDSGGDLVQAGGSLSLSCAASGRIFVYYAMGWYRQAPGTERELVAVITSVGSTYYADSVKGRFTISRDNAKNTVYLQMNSLKPEDTAVYYCAAEWEYYGFDYWGQGTQVTVSS | low polyreactivity
39 | QVQLVESGGGLVQAGGSLRLSCAASGRSFAWYTMGWYRQAPGKERELVAAISGSGGSTYYADSVKGRFTISRDNAKNTVYLQMNSLKPEDSALYYGARRVDSYYGHTRFYYWGQGTQVTVSS | high polyreactivity
40 | QVQLQESGGGLVQAGGSLRLSCAASGTISDSGLMGWYRQAPGKERELVAGISSGGITNYADSVKGRFTISRDIAKNTVYLQMNSLKPEDTAVYWGQGTQVTVSS | low polyreactivity
41 | QVQLVVSGGGLVQAGGSLRLSCAASGSTFVSNAMGWYRQAPGQERELVAAITSGGSTDYADSVKGRCTISRDNAKNTVYVQMNSLQPEDTAVYYGAADPEWHSDQPRVGYVGYNYWGQGTQVNVSS | low polyreactivity
42 | QVQLVESGGGLVQAGGSLRLSCAASGRTFRYYTMGWYRQAPGKEREFVAAISSTGGTYYADSVKGRFTISRDNAKNTVYLQMNCLIPEDTAVYYCAATFIQVVVNVQLYDYDYWGQGTQVTVSS | low polyreactivity
43 | QVQLQESGGGLVQASGSIFHEPNMGWYRQAPGKERELVAGISSGANTYYADSVKGRFTISRDNAKNTVYLQMNSVKPEDTAVYHCAVVVHLYTDLRNWGQDTQVTVSS | high polyreactivity
